Test results reported in patent publication US20230035403A1, “Method For Determining Responsiveness To Prostate Cancer Treatment” (Janssen Biotech, Inc., priority 2020, published 2023).

Columns and labels:
Experiment in all cases: In vitro binding of neoantigens to class I MHC (UV peptide exchange, HLA class I ELISA)
Conditions in all cases: 100% = same binding affinity as positive control peptide
HLA-A*24:02 = HLA-A*24:02 (Homo sapiens, UniProt P04439, D101N/D140Y/D185E/E176V/E190D/F33S/G103R/G107R/I119L/I121M/I306V/K335N/L105A/L180Q/L300P/N151K/N90K/Q86E/Q94H/R106L/R138H/R89G/T104I/T345S/V100E/W191G/Y123F)
Description: (§1) The 9 mer peptides identified by bioinformatics analysis were analyzed for their binding propensities to 6 common HLA class I alleles (HLA-A*01:01, A*02:01, A*03:01, A*24:02, B*07:02, B*08:01). The principle of the method is briefly described below and consists of two parts, one involving exchange of peptide with a positive control induced by Ultraviolet (UV) radiation, and the second is an enzyme immunoassay to detect stable HLA-peptide and empty HLA complexes.
(§2) HLA-bound peptides are critical for the stability of the HLA complex.
(§3) The exchange efficiency between the peptide of interest and Pos was analyzed using an HLA class I ELISA. The combined technologies allowed the identification of ligands for an HLA molecule of interest which are potentially immunogenic.
(§4) The UV control represented UV-irradiation of conditional HLA class I complex in the absence of a rescue peptide.
(§5) The HLA class I ELISA is an enzyme immunoassay based on the detection of beta2-microglobulin (B2M) of (peptide-stabilized) HLA class I complexes. To this end streptavidin was bound onto polystyrene microtiter wells. After washing and blocking, HLA complex present in exchange reaction mixtures or ELISA controls was captured by the streptavidin on the microtiter plate via its biotinylated heavy chain. Non-bound material was removed by washing. Subsequently, horseradish peroxidase (HRP)-conjugated antibody to human B2M was added. […] In the latter case B2M was removed during the washing step. After removal of non-bound HRP conjugate by washing, a substrate solution was added to the wells. A coloured product formed in proportion to the amount of intact HLA complex present in the samples. After the reaction was terminated by the addition of a stop solution, absorbance was measured in a microtiter plate reader. […] Suboptimal HLA binding of peptides with a moderate to low affinity for HLA class I molecules can also be detected by this ELISA technique (Rodenko, B et al. (2006) Nature Protocols 1: 1120-32).
(§6) Binding of select neoepitopes to HLA-A*01:01, HLA-A*02:01, HLA-A*03:01, HLA-A*24:02, HLA-B*07:02 and HLA-B*08:01 was evaluated using the assay described in Example 1. […] As a criterion for further evaluation, peptides with an exchange rate of at least […] with the corresponding Pos peptide for at least one of the 6 HLA alleles that we considered for further evaluation. […] Higher percentages correspond to stronger binding to the HLA allele.

HLA-A*01:01 = HLA-A*01:01 (Homo sapiens, UniProt P04439, A114D/A174V/A182V/D101N/D185E/E176A/E190D/L180R/Q94H/R68K/S129P/T187R/V100A/V91M/W191G)
Description: as §1, §2, §3, §4, §5, §6

HLA-B*07:02 = HLA-B*07:02 (Homo sapiens, UniProt P01889)
Description: as §1, §2, §3, §4, §5, §6

HLA-A*02:01 = HLA-A*02:01 (Homo sapiens, UniProt P04439, D140Y/D185E/D98H/E176V/E277Q/G131W/G231S/I119V/I121R/I166T/I218V/L300P/L318F/N151K/N90K/P208A/P217A/Q86G/Q94H/R138H/R169H/T345S)
Description: as §1, §2, §3, §4, §5, §6

SLYHREKQLIAMDSAI [Neoantigen P22]
Exchange rate with the allele specific Pos peptide, HLA-A*24:02 (HLA-A*24:02): 0% | Exchange rate with the allele specific Pos peptide, HLA-A*01:01 (HLA-A*01:01): 4.4% | Exchange rate with the allele specific Pos peptide, HLA-B*07:02 (HLA-B*07:02): 8.3% | Exchange rate with the allele specific Pos peptide, HLA-A*02:01 (HLA-A*02:01): 46.9%

YEAGMTLGEKFRVGNCKHLKMTRP [Neoantigen P82]
Exchange rate with the allele specific Pos peptide, HLA-A*24:02 (HLA-A*24:02): −0.1% | Exchange rate with the allele specific Pos peptide, HLA-A*01:01 (HLA-A*01:01): 1.5% | Exchange rate with the allele specific Pos peptide, HLA-B*07:02 (HLA-B*07:02): 12.9% | Exchange rate with the allele specific Pos peptide, HLA-A*02:01 (HLA-A*02:01): 6.3%

YEAGMTLGGKILFFLFLLLPLSPFSLIF [Neoantigen P87]
Exchange rate with the allele specific Pos peptide, HLA-A*24:02 (HLA-A*24:02): 0.2% | Exchange rate with the allele specific Pos peptide, HLA-A*01:01 (HLA-A*01:01): 1.1% | Exchange rate with the allele specific Pos peptide, HLA-B*07:02 (HLA-B*07:02): 5% | Exchange rate with the allele specific Pos peptide, HLA-A*02:01 (HLA-A*02:01): 64%
